Results reported in PMC11303537, “Deciphering the allosteric regulation of mycobacterial inosine-5′-monophosphate dehydrogenase” (Nature Communications, 2024).
Where “and” joins values, the source holds several entries; their conditions need not be identical. Equal entries are not always repeated.

Target: the molecule itself
Test: cryo-EM structure; single-particle cryo-EM, MsmIMPDH octamer ~2.5-3.5 µM, 50 mM HEPES pH 7.4, 200 mM KCl, 5 mM DTT, 2 mM MgCl2 excess over nucleotides; datasets apo, ATP, ATP+IMP, ATP+GTP+IMP, ATP+ppGpp+IMP

B1: inosine-5′-monophosphate dehydrogenase from Mycobacterium smegmatis (enzyme, Mycobacterium smegmatis MC2 155, UniProt A0QSU3 1-513, looked up)
chain: MSIAESSVPIAVPVPTGGDDPTKVAMLGLTFDDVLLLPAASDVVPATADTSSQLTKRIRLRVPLVSSAMDTVTESRMAIAMARAGGMGVLHRNLPVAEQAGQVETVKRSEAGMVTDPVTCSPDNTLAEVDAMCARFRISGLPVVDDTGELVGIITNRDMRFEVDQSKPVSEVMTKAPLITAKEGVSAEAALGLLRRHKIEKLPIVDGHGKLTGLITVKDFVKTEQFPLSTKDSDGRLLVGAAVGVGDDAWTRAMTLVDAGVDVLIVDTAHAHNRGVLDMVSRLKQAVGERVDVVGGNVATRAAAAALVEAGADAVKVGVGPGSICTTRVVAGVGAPQITAILEAVAACKPYGVPVIADGGLQYSGDIAKALAAGASTAMLGSLLAGTAESPGELIFVNGKQFKSYRGMGSLGAMQGRGAAKSYSKDRYFQDDVLSEDKLVPEGIEGRVPFRGPLGTVIHQLTGGLRAAMGYTGSATIEQLQQAQFVQITAAGLKESHPHDITMTVEAPNYYTR
notes: also called MsmIMPDH; MsmGuaB2; source: E. coli BL21 RIL LOBSTR, purified (HisTrap, TEV cleavage, second HisTrap, HiTrap Q, Superdex 200); not shown: His6, N-terminal, cleaved
Question: Which “stoichiometry N” value does the source give for B1 here?
Answer: The value was 8 and 4.
